Reference: IntAct's records for PubMed 21209940

B1: DNA-binding protein inhibitor ID-2 (Mus musculus), P41136 (parent)
chain: MKAFSPVRSVRKNSLSDHSLGISRSKTPVDDPMSLLYNMNDCYSKLKELVPSIPQNKKVTKMEILQHVIDYILDLQIALDSHPTIVSLHHQRPGQNQASRTPLTTLNTDISILSLQASEFPSELMSNDSKVLCG
B2: Myoblast determination protein 1 (Mus musculus), P10085 (parent)
chain: MELLSPPLRDIDLTGPDGSLCSFETADDFYDDPCFDSPDLRFFEDLDPRLVHMGALLKPEEHAHFPTAVHPGPGAREDEHVRAPSGHHQAGRCLLWACKACKRKTTNADRRKAATMRERRRLSKVNEAFETLKRCTSSNPNQRLPKVEILRNAIRYIEGLQALLRDQDAAPPGAAAFYAPGPLPPGRGSEHYSGDSDASSPRSNCSDGMMDYSGPPSGPRRQNGYDTAYYSEAARESRPGKSAAVSSLDCLSSIVERISTDSPAAPALLLADAPPESPPGPPEGASLSDTEQGTQTPSPDAAPQCPAGSNPNAIYQVL
partner: B1 chain

Variants of: B1
Conditions: with myod1_mouse Myod1, P10085

effect of a mutation on the interaction	Variant
decreasing interaction	V86K
decreasing interaction	L124K

Variants of: B2
Conditions: with id2_mouse Id2, P41136

effect of a mutation on the interaction	Variant
disrupting interaction	I149K
decreasing interaction	L150K
decreasing interaction	L160K
disrupting interaction	I157K
decreasing interaction	Q161K
